Substrate: CC(=O)O
Test: purified protein
Settings: 5 mM ATP, 2.5 mM CoA, 6 mM MgCl2, pH 7.5, 37 °C, His-tagged

B1: atACS (Arabidopsis acetyl-CoA synthetase) (Arabidopsis thaliana) (protein)
chain: ASEENDLVFPSKEFSGQALVSSPQQYMEMHKRSMDDPAAFWSDIASEFYWKQKWGDQVFSENLDVRKGPISIEWFKGGITNICYNCLDKNVEAGLGDKTAIHWEGNELGVDASLTYSELLQRVCQLANYLKDNGVKKGDAVVIYLPMLMELPIAMLACARIGAVHSVVFAGFSADSLAQRIVDCKPNVILTCNAVKRGPKTINLKAIVDAALDQSSKDGVSVGICLTYDNSLATTRENTKWQNGRDVWWQDVISQYPTSCEVEWVDAEDPLFLLYTSGSTGKPKGVLHTTGGYMIYTATTFKYAFDYKSTDVYWCTADCGWITGHSYVTYGPMLNGATVVVFEGAPNYPDPGRCWDIVDKYKVSIFYTAPTLVRSLMRDDDKFVTRHSRKSLRVLGSVGEPINPSAWRWFFNVVGDSRCPISDTWWQTETGGFMITPLPGAWPQKPGSATFPFFGVQPVIVDEKGNEIEGECSGYLCVKGSWPGAFRTLFGDHERYETTYFKPFAGYYFSGDGCSRDKDGYYWLTGRVDDVINVSGHRIGTAEVESALVLHPQCAEAAVVGIEHEVKGQGIYAFVTLLEGVPYSEELRKSLVLMVRNQIGAFAAPDRIHWAPGLPKTRSGKIMRRILRKIASRQLEELGDTSTLADPSVVDQLIALADV
- Km: 180 ± 30 µM
- kcat: 15.05 ± 0.65 s⁻¹

— article PMC10062202
